Test results: the nanobody polyreactivity screen of Harvey et al. (2022)

Assay: yeast display, Sf9 membrane polyspecificity reagent, FACS + sequencing; frameworks hold sequencing errors
Outline: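 After 36–48 hours of galactose induction, yeast (Saccharomyces cerevisiae BJ5465) displaying a synthetic nanobody library were stained at 4 °C for 1 hour with 10% biotinylated, detergent-solubilized Sf9 membrane reagent. Streptavidin microbeads enriched the stained cells before FACS sorting into low and high (top ~1%) gates on anti-HA and streptavidin fluorescence. Each clone's polyreactivity label reflects its gate of origin.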

| Sequence | polyreactivity (PSR sort gate) |
| --- | --- |
| QVQLVESGGGLVQAGGSLRLSCAASGLTFVPNAMGWSRQAPGKERELVAGITSAGSTYYADSVKGRFTISRDNAKNTVYLQMNSLKPEDSAVYYCAKQFYRGFRYGYWGQGTQVTVSS | high polyreactivity |
| QVQLVESGGGLVQAGGSLRLSCAASGLTFVPNARGWYRQAPGKERELVAASSNNGGRTYYADSVKGRFTISRDNAKKTVYLQMNSLKPEDTAVYYCAKYLSPGERHSYDYWGQGTQVTVSS | high polyreactivity |
| QVQLVESGGGLVQAGGSLRLSCAASGLTFVQNAMGWYRQAPGKERELVAAISSRGGSTYYADSVKGRFTISRDNAKNTVYLQMNSLKPEDTAVYYCNTRSITKYDYWRRGYGYWGQGTQVTVSS | high polyreactivity |
| QVQLVESGGGLVQAGGSLRLSCAASGLTFVVYAMGWYRPAPGKERELVAASDFSGGDTYYADSVKGRFTISRDNAKNTVYLQRNSLKPEDTADYYCAAEYYGPSYYIGFDYWGQGTQVTVSS | high polyreactivity |
| QVQLVESGGGLVQAGGSLRLSCAASGLTFVWYAMGWYRQAPGKERELVAAIRGGGSTYYADSVKGRFTISRDNAKNTVYLQMNSLKPEDTAVYYCAAPYARCLFYLLHYPRFSYDYWGQGTQVTVSS | high polyreactivity |
| QVQLVESGGGLVQAGGSLRLSCAASGLTFVYYDMGWYRQAPGKERELVADITDGSSTNYADSVKGRFTISRDNAKNTVYLQMYSLKREDTAVYYCAVDAVFQGSLGDYEYDYWGQGTQVTVSS | low polyreactivity |
| QVQLVESGGGLVQAGGSLRLSCAASGLTFWAYTMGWYRQAPGKERELVAAITSSGGRTYYADSVKGRFTISRDNAKNTVYLQMNSLKPEDTAVYYCAALGGRYRASTYGYWGQGTQVTVSS | high polyreactivity |
| QVQLVESGGGLVQAGGSLRLSCAASGLTFWDNAMGWYRQAPGKERELVAAITRSGGSTHYADSVKGRFTISRDNAKNTVYLQMNSLKPEDTAVYYCAADYDFYDFSYQSWSEENYWGQGTQVTVSS | low polyreactivity |
| QVQLVESGGGLVQAGGSLRLSCAASGLTFWEYAMGWYRQAPGQERELVAAITRGGNTYYADSVKGRFTISRDNAKNTVSLQMNSLKPEDTAVYYCAARGYYLTGGCRRYYYWGQGTQVTVSS | high polyreactivity |
| QVQLVESGGGLVQAGGSLRLSCAASGLTFWFNAMGWYRPAPGKERALVGAIRNRGGSTYYADSVKGRFTISRDTAKNTVYLQMNSLKPEDTAVYYCAAVSWFLVGPRYYYWGQGTQVTVSS | high polyreactivity |
| QVQLVESGGGLVQAGGSLRLSCAASGLTFWGYAMGWYRQAPGKEREFVASISSGGGSTYYADSVKGRFTISRDNAKNTVYLQMNSLKPEDTAVYYCNADRTQDRNPYTYATFDYWGQGTQVTVSS | low polyreactivity |
| QVQLVESGGGLVQAGGSLRLSCAASGLTFWLNAMGWYRQAPGKERELVAAIRYSGVGTYADSVKGRFTISRDNAKNTVYLQMNSLKPEDTAVYYCAALYNLGYPQFDYWGQGTQVTVSS | low polyreactivity |
| QVQLVESGGGLVQAGGSLRLSCAASGLTFWPNAMGWYRQAPGKERELVAAISYTGGITYYADSVKGRFTISRDNAKNTDYLQMNSLKPEDTAVYSCNKGRRGYYSVRRYDYWGQGTQVTVSS | low polyreactivity |
| QVQLVESGGGLVQAGGSLRLSCAASGLTFWVYAMGWYRQAPGKERELVAAISGSGARTYYADSVKGRFTISRDNAKNTVYLQMNSLKPEDTAVYYCAARAVRATAKYEYWGQGTQVTVSS | high polyreactivity |
| QVQLVESGGGLVQAGGSLRLSCAASGLTFWYNAMGWYRQAPGKERELVAAINSGGRTNYADSVKGRFTISRDNAKNTVYLQMNSLKPEDTAVYYCAAVRHWTVGWTYYYWGQGTQVTVSS | high polyreactivity |
| QVQLVESGGGLVQAGGSLRLSCAASGLTFYDYAMGWYRQAPGKERELVAAISSGGSTYYADSVKGRFTISRDNAKNTVYLHMNSLKPEDTAVYYCAARPAYRVHAMGYWGQGTQVTVSS | low polyreactivity |

| Sequence | polyreactivity (PSR sort gate) |
| --- | --- |
| QVQLVESGGGLVQAGGSLRLSCAASGLTFYEYAMGWYTQAPGKERELVAAITASGGSTYYADSVKGRFTISRDNAKNTVYLQMNSLKPEDSAVYYCAAVDYVRYYPDEFDYWGQGTQVTVSS | low polyreactivity |
| QVQLVESGGGLVQAGGSLRLSCAASGLTFYKNVMGWYRQAPGKERELVAAISSSGGSTYYADSVKGRFTISRDNAKNTVYLQMNSLKPDDTAVYYGAADDPLYTPYEFDYWGQGTQVTVSS | low polyreactivity |
| QVQLVESGGGLVQAGGSLRLSCAASGLTFYLYDMGWYRQAPGKERELVAAISRRGTSTYYADSVKGRFTISRDNAKNTVYLQMNSLKPEDTAVYYCAADRKFGRDYWGQGTQVTVSS | high polyreactivity |
| QVQLVESGGGLVQAGGSLRLSCAASGLTFYRNAMGWYRQAPGKERELVAAITSRGGSTYYADSVKGRFTISRDNAKNTVYLQMNSLKPEDTAVYYCAAYSTLITGRDYGYWGQGTQVTVSS | high polyreactivity |
| QVQLVESGGGLVQAGGSLRLSCAASGLTFYRYAMGLYRQAPGKERELVAGITRRGGSTYYADSVKGRFTISRDNAKNTVYLQMNSLKPEDTSVYYCNVDGISSSYPELDYWGQGTQVTVSS | low polyreactivity |
| QVQLVESGGGLVQAGGSLRLSCAASGLTFYRYAMGWYRQAPWKERDFVAAINRNGGSTYYADSVKGRFTISRDNAKNTVYLEMNSLKPEDTAVYYCNARVSGTRSGRVLRDYWGQGTQVTVSS | high polyreactivity |
| QVQLVESGGGLVQAGGSLRLSCAASGLTFYSYAMGWSRQAPGKERELVAAISKSGGSTFYADSVKGRFTISRDNAKNTVYLQMNSLKPEDTAVYYCNARRRHEGSPPYGYWGQGTQVTVSS | high polyreactivity |
| QVQLVESGGGLVQAGGSLRLSCAASGLTFYSYAMGWYRQAPGKERELVAAISKSGGSTYYADSVKGRFTISRDNAKNTVYLQMNSLKPEDTAVYYCNALTKTGTPPDYDYWGQGTQVTVSS | high polyreactivity |
| QVQLVESGGGLVQAGGSLRLSCAASGLTFYTNAMGWYRQAPGKERELVAAITSSGGRTYYADSVKGRFTISRDNAKNTVYLQMNSLKPEDTAVYYCAADARRPSIPEMYYCGQGTQVTVSS | high polyreactivity |
| QVQLVESGGGLVQAGGSLRLSCAASGLTFYVYGMGWYRQAPGKERELVASITSGGNTYYADSVKGRFTISRDNAKNTVYLQMNSLKPEDTAVYYCAVTAIALYYSSGYYWGQGTQVTVSS | low polyreactivity |
| QVQLVESGGGLVQAGGSLRLSCAASGLTFYYNAMGWYRPAPGKERELVAAITWSTDSTYYADSVKGRFTISRDNAKNTVYLQMNSLKPEDTAVYYCAAAVDAFTNKQYYYWGQGTQVTVSS | low polyreactivity |
| QVQLVESGGGLVQAGGSLRLSCAASGLTFYYYAKGWYRQAPGKERDFVAAISRSGGTTYYADSVKGRYTISRDNAKNTVYLQMNSLKPEDTAVYYCNAQWCRYWPSQVIFDYWGQGTQVTVSS | high polyreactivity |
| QVQLVESGGGLVQAGGSLRLSCAASGLTFYYYAMGWYRQAPGKERELVAAISGTGGSAYYADSVKGRFTISRDNAKNTVYLQMNSLKPEDTAVYYCAARYLRYKGTGATSAYDYWGQGTQVTVSS | high polyreactivity |
| QVQLVESGGGLVQAGGSLRLSCAASGLTFYYYAMGWYRQAPGKERELVAAISIGGSTDYADSAKGRFTISRDNAKNTVYLQMNRLKPEDTAVYYCNVDDNSEYDYWGQGTQVTVSS | low polyreactivity |
| QVQLVESGGGLVQAGGSLRLSCAASGLTFYYYAMGWYRQAPGKERELVAAISYSGSRTYYADSVKGRFTISRDNAKNTVYLQMNSLKPEDTAVYYCAARLSDGGGYWGQGTQVTVSS | high polyreactivity |
